Assay results reported in the supplement of paper PMC9170038.

Tested on: MS2 coat protein
Assay: apparent KD of MS2 coat protein; designed switch direction (-1 OFF switch, 1 ON switch): -1; higher = weaker reporter binding
Procedure, shortened: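 Transcription of designed RNA switches on Illumina chips was done by stalled E. coli RNA polymerase. SNAP-549-labelled MS2 coat protein was then titrated in doubling steps from 0.7 or 1.5 nM to 3 µM, with steps of 0.8–1.5 h at the lowest and 10–20 min at the highest concentration. The per-design median over clusters of curve-fitted normalised fluorescence is reported as apparent KD.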

[1] = Eterna round: R95, input ligand: FMN 200 uM
[2] = Eterna round: R95, input ligand: microRNA oligo, concentration not stated
[3] = Eterna round: R95, input ligand: none
[4] = input ligand: microRNA oligo, concentration not stated

Sequence | apparent KD of MS2 coat protein (input ligand: FMN 200 uM) | apparent KD of MS2 coat protein (input ligand: none) | apparent KD of MS2 coat protein [1] | apparent KD of MS2 coat protein [2] | apparent KD of MS2 coat protein [3] | apparent KD of MS2 coat protein [4]
CACAGGAGACGGAGAUCCAACAUGAGGAUCACCCAUGUCUCAAAAGCUUUUUGCUUGUCUUAUCCUCCUCUCUUGAC [Mat - Sensor, turn-off var - Eli Mod - D60] (Eterna round: R97, puzzle: Sensor, turn-off variant 1) | 26 nM | 28.1 nM | – | – | – | –
GCUAGUCAUGUCAGGAUAUGCAGAACCUUGGUUCUGCAGAAGGGACAUGAGGAUCACCCAUGUGCCUAACUAGC [Mat - Exclusion 4 - JL Mod - D15] (Eterna round: R97, puzzle: Brourd's mod of Exclusion 4) | 294 nM | 40.3 nM | – | – | – | –
AGCUAGUCAGGAUAUUCUAUUAAUUACAUGAGGAUCACCCAUGUGAAUGGACAAGGGUGUGAAGAAGGGACUAGCG [Omei Ex5 A13] (Eterna round: R97, puzzle: Exclusion 5) | 394 nM | 2080 nM | – | – | – | –
CCGAAGCUAGGAUAUACAUGAGGAUCACCCAUGUAAUCUCAUUUACGGGUCGGGCGCAGUAGAAGGAGCAAAGU [EX3 B.17] (Eterna round: R97, puzzle: Exclusion 3) | 17.5 nM | 15.6 nM | – | – | – | –
AGUUGGCGAGGAUAUACAUGAGGAUCACCCAUGUGAAUAAGAAUAGUGAGGAAGAAAAGUAGAAGGCGCUGACA [Mat - Exclusion 3 - Mod of Salish D36] (puzzle: Exclusion 3) | – | – | 237 nM | 39.8 nM | 44.5 nM | –
UAAGUUCAGUAGGAUAUUCAGCAGCUGCUGCUAGGAGAAGGGCUGACAUGAGGAUCACCCAUGUGAGUGUCCGU [Eternabot (L2) Solution 55] (Eterna round: R97, puzzle: Exclusion 6) | 92.2 nM | 32.1 nM | – | – | – | –
CCGAAACAUGAGGAUCACCCAUGUGAGGAUAUGAGCGUCUAGUUGAGAGAUUGGACGCUCAGAAGGCACAAAGG [JR_Ex1_Sub074] (Eterna round: R97, puzzle: Exclusion 1) | 105 nM | 35.5 nM | – | – | – | –
GACCAAUAGGUAGGAUAUCAUUGCGAUUAGCUAUGAGAAGGACCACAUGAGGAUCACCCAUGUCCUCUAAUUAGCCAAUUGGUA [8th something] (Eterna round: R96, puzzle: Exclusion NG 1) | 426 nM | 90.9 nM | – | – | – | 170 nM
AUCGAGAUAGGAUAUGCCCAAGUAAACAUGAGGAUCACCCAUGUGGGUCACCUCUUCACGGUAGAAGGGUUAGAUU [Eternabot (L1) Solution 90] (Eterna round: R97, puzzle: Exclusion 5) | 62 nM | 81.8 nM | – | – | – | –
GGGUGCAGGCUGCGGUCCUACAUGAGGAUCACCCAUGUGGUCCGGUGGCGUGGGUCGCCGGACUUGGCUCGUCUUGU [salish99_S_TOV1_R5_014] (Eterna round: R97, puzzle: Sensor, turn-off variant 1) | 91.2 nM | 99.3 nM | – | – | – | –
CAGUACUGAGGAUAUACAUGAGGAUCACCCAUGUGUCCCAGCUAGGAAACUAGCAAAAGUAGAAGGCAGUACUG [828 mod 2 m4] (Eterna round: R97, puzzle: Exclusion 3) | 622 nM | 28.1 nM | – | – | – | –
UACAUGAGGAUCACCCAUGUUUUGUCGUGUAUGGUAUUUAUCUAGGAUAUCAAUCUAUUUAAUUAUGAGAAGGAGAAUAUUAAU [JMF's solution 53] (Eterna round: R96, puzzle: Exclusion NG 3) | 37.2 nM | 39.3 nM | – | – | – | 32.5 nM
UUUUAACAUGAGGAUCACCCAUGUGAGGAUAUCGAAAUUUAUAUUUAUAUUUAUAAAUCGAGAAGGCACAUUUU [JMF 92] (puzzle: Exclusion 1) | – | – | – | 111 nM | – | –
GAUUAUGCGAGCUUUAGGGACAUGAGGAUCACCCAUGUUCGUCUUAUUGGUCUGAAUACACUGACAUACCUAAAUCU [JMF 56] (Eterna round: R96, puzzle: Sensor v3, turn-off variant 1) | 17.1 nM | 18.7 nM | – | – | – | 18.3 nM
GAUCCACAUGAGGAUCACCCAUGUGAGGAUAUGUCCAUAUUCGGCAAAUCGGAUAUGGACAGAAGGCACACCGG [JR_Exclusion1_Sub012] (puzzle: Exclusion 1) | – | – | – | 104 nM | – | –
UGAAAGGUAGGAUAUACGAAGAAAAAGGGUAGAAUAAUAACACAUGAGGAUCACCCAUGUAGAAGGACCAAAGU [Mat - Exclusion 2 - Mod of my Tesla design - D10] (puzzle: Exclusion 2) | – | – | 51.7 nM | 26.2 nM | 24.6 nM | –
GUUUGACAUGAGGAUCACCCAUGUGAGGAUAUCGGCUGGUACGUGUUGGCUGGCAUCUCGAGAAGGCACAUAGG [Exclusion 1 V58] (puzzle: Exclusion 1) | – | – | – | 109 nM | – | –
UGAGACUGAGGAUAUACUAGCCCAUAAAGUGGGUAGUGGGUACAUGAGGAUCACCCAUGUAGAAGGCAGCCUCG [Omei Repeat Sequence v2] (Eterna round: R97, puzzle: Exclusion 2) | 251 nM | 29.4 nM | – | – | – | –
GGAAAGCAAGGAUAUACGAGGAGAAGGAGGAAAGUAAAAGGACAUGAGGAUCACCCAUGUAGAAGGUGCGAGAG [JR_Exclu2_Sub040] (puzzle: Exclusion 2) | – | – | 27.6 nM | 29.7 nM | 32.9 nM | –
CUCGUGUCGGAGGAUAUCCAGCGCGAAAAUAAAGGAGAAGGCCGCACAUGAGGAUCACCCAUGUAACAUGGUCC [Onbier] (puzzle: Exclusion 6) | – | – | – | 44.8 nM | – | –
UGUCAGUCAGGAUAUGCAUACGUAGACAUGAGGAUCACCCAUGUGACGUGGGCCUGGUGUGUAGAAGGGACGAACA [EX5 #80] (Eterna round: R97, puzzle: Exclusion 5) | 48.5 nM | 19.5 nM | – | – | – | –
CAUACUGAAGUUAGGAUAUUCGAACGUAUACGGAUGGAGAAGGGACAUGAGGAUCACCCAUGUAGUUAGUAAAG [EX-4 Malc #10] (puzzle: Brourd's mod of Exclusion 4) | – | – | 17.3 nM | 17.4 nM | 22.3 nM | –
CUAGUCCGAGGAUAUAUUAAGUGAAACAUGAGGAUCACCCAUGUUAUUUGAUGGAUGAAAAUAGAAGGCGGACUAG [Mat - Exclusion 5 - JL mod - D60] (puzzle: Exclusion 5) | – | – | 27.8 nM | 46.9 nM | 58.5 nM | –
AAAUCGGUAGAGGAUAUUGUACAGGAAACGGUGCAAGAAGGUUACACAUGAGGAUCACCCAUGUUAAAUUGCGA [EX6 #52] (Eterna round: R97, puzzle: Exclusion 6) | 21.4 nM | 17.3 nM | – | – | – | –
